Test results from US20240254246A1 (PROMETHEUS BIOSCIENCES, published 2024).

T1: recombinant human CD30L (human, UniProt P32971 63-234)
T1 construct: Purified recombinant protein of ELISA, BLI, Carterra and KinExA; also called rhCD30L; huCD30L
T1 sequence (looked up): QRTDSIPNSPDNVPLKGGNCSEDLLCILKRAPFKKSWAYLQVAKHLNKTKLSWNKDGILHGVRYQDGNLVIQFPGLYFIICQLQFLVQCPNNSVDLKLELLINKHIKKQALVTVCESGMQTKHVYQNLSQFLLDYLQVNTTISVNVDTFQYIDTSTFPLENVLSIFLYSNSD

T2: human CD30L expressed on B16 cells (human, UniProt P32971 1-234)
T2 construct: whole, on cells; B16 cell line transfected to express human CD30L; also called B16-huCD30L; B16-rhCD30L
T2 sequence (looked up): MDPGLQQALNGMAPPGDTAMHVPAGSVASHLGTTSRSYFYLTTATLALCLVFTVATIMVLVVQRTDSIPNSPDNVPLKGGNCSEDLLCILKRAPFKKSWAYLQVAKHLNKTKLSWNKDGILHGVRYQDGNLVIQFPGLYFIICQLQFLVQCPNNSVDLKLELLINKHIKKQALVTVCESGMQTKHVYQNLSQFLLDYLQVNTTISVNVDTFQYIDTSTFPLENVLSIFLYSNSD

T3: recombinant mouse CD30L (mouse, UniProt P32972 68-239)
T3 construct: Purified recombinant protein; also called rmCD30L
T3 sequence (looked up): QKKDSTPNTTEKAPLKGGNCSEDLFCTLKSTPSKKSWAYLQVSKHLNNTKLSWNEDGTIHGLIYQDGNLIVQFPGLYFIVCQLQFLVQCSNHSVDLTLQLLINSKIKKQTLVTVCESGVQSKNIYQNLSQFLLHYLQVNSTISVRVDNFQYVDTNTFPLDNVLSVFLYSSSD

T4: recombinant cynomolgus CD30L (cynomolgus, UniProt A0A7N9CVX7 63-234)
T4 construct: Purified recombinant protein; also called rcyCD30L; cyno CD30L
T4 sequence: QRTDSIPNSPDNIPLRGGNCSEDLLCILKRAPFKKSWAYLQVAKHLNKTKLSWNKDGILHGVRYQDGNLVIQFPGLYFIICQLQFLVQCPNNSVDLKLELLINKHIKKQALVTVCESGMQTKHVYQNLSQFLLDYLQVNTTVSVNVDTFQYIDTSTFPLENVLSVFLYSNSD

T5: cynomolgus CD30L expressed on HEK293 cells (cynomolgus, UniProt A0A7N9CVX7 1-234)
T5 construct: whole, on cells; also called HEK293-cyCD30L; HEK-cyCD30L
T5 sequence: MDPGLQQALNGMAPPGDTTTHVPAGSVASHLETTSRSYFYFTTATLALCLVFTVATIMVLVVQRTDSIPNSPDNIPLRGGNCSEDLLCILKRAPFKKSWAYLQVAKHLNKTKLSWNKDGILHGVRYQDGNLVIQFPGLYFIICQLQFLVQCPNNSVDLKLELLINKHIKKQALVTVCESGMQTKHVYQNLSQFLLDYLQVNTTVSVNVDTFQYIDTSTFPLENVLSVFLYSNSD

T6: CDH13 (human, UniProt P55290 139-693)
T6 construct: whole, on cells; also called hit #16
T6 sequence (looked up): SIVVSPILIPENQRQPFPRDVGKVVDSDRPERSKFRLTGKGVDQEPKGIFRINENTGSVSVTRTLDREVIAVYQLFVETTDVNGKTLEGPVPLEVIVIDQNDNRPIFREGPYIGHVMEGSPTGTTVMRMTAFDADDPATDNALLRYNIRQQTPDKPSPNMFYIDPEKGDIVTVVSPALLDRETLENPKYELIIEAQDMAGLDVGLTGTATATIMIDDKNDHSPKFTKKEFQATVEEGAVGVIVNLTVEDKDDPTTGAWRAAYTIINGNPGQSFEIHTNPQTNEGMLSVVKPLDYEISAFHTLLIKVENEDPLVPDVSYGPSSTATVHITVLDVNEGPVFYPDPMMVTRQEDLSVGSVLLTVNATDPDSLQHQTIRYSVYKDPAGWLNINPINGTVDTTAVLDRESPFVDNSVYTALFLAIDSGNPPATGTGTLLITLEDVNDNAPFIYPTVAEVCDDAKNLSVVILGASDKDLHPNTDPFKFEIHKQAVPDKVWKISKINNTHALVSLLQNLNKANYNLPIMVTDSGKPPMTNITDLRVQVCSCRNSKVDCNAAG


Legend:
recombinant human CD30L [1] = target: T1, recombinant human CD30L; experiment: recombinant blocking ELISA; competitor CD30
recombinant human CD30L [2] = target: T1, recombinant human CD30L; experiment: ELISA, binding to rhCD30L (OD 450 nm)
[3] = target: T2, human CD30L expressed on B16 cells; experiment: flow cytometry, binding to B16 cells expressing human CD30L (MFI)
recombinant human CD30L [4] = target: T1, recombinant human CD30L; experiment: ELISA on recombinant protein
recombinant mouse CD30L = target: T3, recombinant mouse CD30L; experiment: ELISA on recombinant protein
[5] = target: T4, recombinant cynomolgus CD30L; experiment: ELISA on recombinant protein
recombinant human CD30L [6] = target: T1, recombinant human CD30L; experiment: BLI, CD30 association to CD30L held by captured IgG; competitor rhCD30
Description: Briefly, individual anti-human biosensors were loaded with purified IgG (normalized to 10 μg/mL) and a baseline was measured for each biosensor. Biosensors were saturated with biotin and with polyclonal hulgG and a baseline was measured. Loaded biosensors were then allowed to bind CD30L and the association rate was measured for the binding. Biosensors were moved to buffer wells to measure the dissociation rate.

[7] = target: T2, human CD30L expressed on B16 cells; experiment: flow cytometry on B16 cells expressing hCD30L
[8] = target: T5, cynomolgus CD30L expressed on HEK293 …; experiment: flow cytometry, binding to HEK293-cyCD30L cells
recombinant human CD30L [9] = target: T1, recombinant human CD30L; experiment: ELISA, blocking of CD30-Fc on huCD30L; competitor CD30-Fc
recombinant human CD30L [10] = target: T1, recombinant human CD30L; experiment: ELISA, binding to purified rhCD30L
[11] = target: T2, human CD30L expressed on B16 cells; experiment: flow cytometry, blocking of CD30-Fc on B16-huCD30L cells; competitor CD30-Fc
[12] = target: T5, cynomolgus CD30L expressed on HEK293 …; experiment: flow cytometry, blocking of CD30-Fc on HEK293-cyCD30L cells; competitor CD30-Fc
[13] = target: T4, recombinant cynomolgus CD30L; experiment: ELISA, binding to purified rcyCD30L
[14] = target: T2, human CD30L expressed on B16 cells; experiment: cell-based or functional assay
[15] = target: T5, cynomolgus CD30L expressed on HEK293 …; experiment: cell-based or functional assay
[16] = target: T2, human CD30L expressed on B16 cells; experiment: flow cytometry, binding to B16-rhCD30L cells
[17] = target: T4, recombinant cynomolgus CD30L; experiment: ELISA, blocking of CD30-Fc on rcyCD30L; competitor CD30-Fc
CDH13 = target: T6, CDH13; experiment: cell microarray, library and confirmation screens

Binder | IC50 (recombinant human CD30L [1]) | EC50 (read off the curve) (recombinant human CD30L [2]) | EC50 (read off the curve) [3] | rhCD30L (+) ELISA (recombinant human CD30L [4]) | rmCD30L (+) ELISA (recombinant mouse CD30L) | rcyCD30L (+) ELISA [5] | rhCD30L:rhCD30 Blocking (recombinant human CD30L [6]) | hCD30L B16 (+) FLOW [7] | EC50 [8] | IC50 (recombinant human CD30L [9]) | EC50 (recombinant human CD30L [10]) | IC50 [11] | IC50 [12] | EC50 [13] | Inhibition of IL-8 release in a dual cell assay (B16-huCD30L cells + K299 cells) IC50 [14] | Inhibition of IL-8 release in a dual cell assay (HEK293-cyCD30L cells + K299 cells) IC50 [15] | EC50 [16] | IC50 [17] | binding result (CDH13)
anti-CD30L antibody clone 64 (antibody, V domains shown, purified recombinant IgG (held by anti-human biosensors); mouse strain #1) VH: EVQLVESGGGLVQPGGSLRLSCAASGFTFSNYAMTWVRQAPGKGLEWVSAISGFGGSTYYADSVKGRFTISRDNSKNTLYLQMNSLRAEDTAVYYCAKDHDYYAFDYWGQGTLVTVSS VL: not shown | 3.17 nM | ~0.1 nM | ~1 nM | 2.04 | 0.049 | 0.951 | 0.0633 | 5.67e+06 |  |  |  |  |  |  |  |  |  |  | 
anti-CD30L antibody clone 1 (antibody, V domains shown, also called clone 1 parental) VH: QVQLQESGPGLVKPSETLSLTCTVSGGSISGYYWSWIRQPPVKGLEWIGYIFYSGYTKYNPSLKSRVTISVDTSKNQFSLKLSSVTAADTAVYYCARDRWDFDYWGQGALVTVSS VL: AIQMTQSPSYLSASVGDRVTIACRASQGIRNNLGWYQQKPGKAPKLLIYAESSLQSGVPSRFSGSGSGTDFTLTISSLQPEDFATYYCLQDFNYPYTFGQGTKLEIK |  |  |  |  |  |  |  |  | 0.67 nM | 2.14 nM | 0.05 nM | 1.06 nM | 0.51 nM | 0.07 nM | 1.43 nM | 0.39 nM | 1.11 nM | 1.58 nM | 

Now from value to binder:

IC50 (recombinant human CD30L [1]) | EC50 (read off the curve) (recombinant human CD30L [2]) | EC50 (read off the curve) [3] | rhCD30L (+) ELISA (recombinant human CD30L [4]) | rmCD30L (+) ELISA (recombinant mouse CD30L) | rcyCD30L (+) ELISA [5] | rhCD30L:rhCD30 Blocking (recombinant human CD30L [6]) | hCD30L B16 (+) FLOW [7] | EC50 [8] | IC50 (recombinant human CD30L [9]) | EC50 (recombinant human CD30L [10]) | IC50 [11] | IC50 [12] | EC50 [13] | Inhibition of IL-8 release in a dual cell assay (B16-huCD30L cells + K299 cells) IC50 [14] | Inhibition of IL-8 release in a dual cell assay (HEK293-cyCD30L cells + K299 cells) IC50 [15] | EC50 [16] | IC50 [17] | binding result (CDH13) | Binder
3.66 nM | ~0.1 nM | ~1 nM | 1.97 | 0.047 | 1.38 | 0.0522 | 6.91e+06 |  |  |  |  |  |  |  |  |  |  |  | anti-CD30L antibody clone 65 (antibody, V domains shown, purified recombinant IgG (held by anti-human biosensors); mouse strain #1) VH: EVQLVESGGGLVQPGGSLKLSCAASGFTFSNYAMTWVRQAPGKGLEWVSAISGYGGSTYYAASVKGRFTISRDNSKNTLFLQMNSLRAEDTAVYYCAKDHDYYAFDYWGQGTLVPVSS VL: not shown
 |  |  |  |  |  |  |  |  |  |  |  |  |  |  |  |  |  | no binding (tested: 5 µg/mL) | anti-CD30L antibody clone 1 with IgG1 constant region SEQ ID NO: 502 (antibody, V domains shown, copies: 2 + 2) VH: QVQLQESGPGLVKPSETLSLTCTVSGGSISGYYWSWIRQPPVKGLEWIGYIFYSGYTKYNPSLKSRVTISVDTSKNQFSLKLSSVTAADTAVYYCARDRWDFDYWGQGALVTVSS VL: AIQMTQSPSYLSASVGDRVTIACRASQGIRNNLGWYQQKPGKAPKLLIYAESSLQSGVPSRFSGSGSGTDFTLTISSLQPEDFATYYCLQDFNYPYTFGQGTKLEIK
